T1: EsCas13d, nuclease-dead (Eubacterium siraeum, UniProt B0MS50, R295A;H300A;R849A;H854A)
T1 sequence: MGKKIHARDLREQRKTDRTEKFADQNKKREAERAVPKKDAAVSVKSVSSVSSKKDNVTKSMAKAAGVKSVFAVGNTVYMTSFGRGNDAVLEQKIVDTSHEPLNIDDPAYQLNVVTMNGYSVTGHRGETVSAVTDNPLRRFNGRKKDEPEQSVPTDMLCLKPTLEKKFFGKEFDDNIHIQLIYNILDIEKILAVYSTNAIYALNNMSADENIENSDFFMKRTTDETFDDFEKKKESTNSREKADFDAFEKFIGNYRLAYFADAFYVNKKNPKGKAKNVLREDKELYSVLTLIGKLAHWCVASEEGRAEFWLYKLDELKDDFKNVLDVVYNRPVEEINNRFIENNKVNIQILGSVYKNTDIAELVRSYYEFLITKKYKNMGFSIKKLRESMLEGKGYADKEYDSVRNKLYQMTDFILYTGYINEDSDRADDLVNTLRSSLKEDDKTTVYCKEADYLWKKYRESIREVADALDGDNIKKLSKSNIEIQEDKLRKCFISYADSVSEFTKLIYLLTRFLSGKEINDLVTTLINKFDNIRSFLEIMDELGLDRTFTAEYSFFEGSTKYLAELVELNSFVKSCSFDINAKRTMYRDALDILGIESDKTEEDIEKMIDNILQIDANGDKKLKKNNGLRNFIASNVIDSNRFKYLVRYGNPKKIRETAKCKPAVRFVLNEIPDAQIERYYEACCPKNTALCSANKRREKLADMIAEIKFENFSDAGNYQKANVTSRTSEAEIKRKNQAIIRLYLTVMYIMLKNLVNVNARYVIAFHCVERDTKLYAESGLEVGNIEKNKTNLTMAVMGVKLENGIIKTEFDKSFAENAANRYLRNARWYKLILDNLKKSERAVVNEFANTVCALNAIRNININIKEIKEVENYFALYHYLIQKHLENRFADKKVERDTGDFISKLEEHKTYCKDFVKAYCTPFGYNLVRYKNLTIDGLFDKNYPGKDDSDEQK

B1: target 1 insG 3' of 16,insA 3' of 10 (mixed)
RNA 1: CACCCGUGCAAAAAUGCAGGGGUCUAAAACUGAGCGGAUAACCUCUCUAUGG
RNA 2: GGGAAUGGAUCCACAUCUACGAAUUCGUACCAUAGAGGAGGUUAAUCCGCUCACCGAGAUCGGAAGAGCACACGU
B2: target 1 insC 3' of 12,insG 3' of 2 (mixed)
RNA 1: CACCCGUGCAAAAAUGCAGGGGUCUAAAACUGAGCGGAUAACCUCUCUAUGG
RNA 2: GGGAAUGGAUCCACAUCUACGAAUUCGUACCAUAGAGAGGCUUAUCCGCUCGACCGAGAUCGGAAGAGCACACGU
B3: target 1 insC 3' of 17,insU 3' of 17 (mixed)
RNA 1: CACCCGUGCAAAAAUGCAGGGGUCUAAAACUGAGCGGAUAACCUCUCUAUGG
RNA 2: GGGAAUGGAUCCACAUCUACGAAUUCGUACCAUAGCUAGAGGUUAUCCGCUCACCGAGAUCGGAAGAGCACACGU
B4: target 1 C6G,A16U (mixed)
RNA 1: CACCCGUGCAAAAAUGCAGGGGUCUAAAACUGAGCGGAUAACCUCUCUAUGG
RNA 2: GGGAAUGGAUCCACAUCUACGAAUUCGUACCAUAGUGAGGUUAUCGGCUCACCGAGAUCGGAAGAGCACACGU
B5: target 1 C2G,C6U (mixed)
RNA 1: CACCCGUGCAAAAAUGCAGGGGUCUAAAACUGAGCGGAUAACCUCUCUAUGG
RNA 2: GGGAAUGGAUCCACAUCUACGAAUUCGUACCAUAGAGAGGUUAUCUGCUGACCGAGAUCGGAAGAGCACACGU
B6: target 1 insU 3' of 12,insA 3' of 6 (mixed)
RNA 1: CACCCGUGCAAAAAUGCAGGGGUCUAAAACUGAGCGGAUAACCUCUCUAUGG
RNA 2: GGGAAUGGAUCCACAUCUACGAAUUCGUACCAUAGAGAGGUUUAUCCAGCUCACCGAGAUCGGAAGAGCACACGU
B7: target 1 insG 3' of 11,insG 3' of 7 (mixed)
RNA 1: CACCCGUGCAAAAAUGCAGGGGUCUAAAACUGAGCGGAUAACCUCUCUAUGG
RNA 2: GGGAAUGGAUCCACAUCUACGAAUUCGUACCAUAGAGAGGUGUAUCGCGCUCACCGAGAUCGGAAGAGCACACGU
B8: target 1 A16C,C22A (mixed)
RNA 1: CACCCGUGCAAAAAUGCAGGGGUCUAAAACUGAGCGGAUAACCUCUCUAUGG
RNA 2: GGGAAUGGAUCCACAUCUACGAAUUCGUAACAUAGCGAGGUUAUCCGCUCACCGAGAUCGGAAGAGCACACGU
B9: target 1 insC 3' of 10,insC 3' of 5 (mixed)
RNA 1: CACCCGUGCAAAAAUGCAGGGGUCUAAAACUGAGCGGAUAACCUCUCUAUGG
RNA 2: GGGAAUGGAUCCACAUCUACGAAUUCGUACCAUAGAGAGGUUCAUCCGCCUCACCGAGAUCGGAAGAGCACACGU
B10: target 1 U10G,C22A (mixed)
RNA 1: CACCCGUGCAAAAAUGCAGGGGUCUAAAACUGAGCGGAUAACCUCUCUAUGG
RNA 2: GGGAAUGGAUCCACAUCUACGAAUUCGUAACAUAGAGAGGUGAUCCGCUCACCGAGAUCGGAAGAGCACACGU
B11: target 1 insA 3' of 19,insC 3' of 3 (mixed)
RNA 1: CACCCGUGCAAAAAUGCAGGGGUCUAAAACUGAGCGGAUAACCUCUCUAUGG
RNA 2: GGGAAUGGAUCCACAUCUACGAAUUCGUACCAUAAGAGAGGUUAUCCGCUCCACCGAGAUCGGAAGAGCACACGU
B12: target 1 complement block 1-4 (mixed)
RNA 1: CACCCGUGCAAAAAUGCAGGGGUCUAAAACUGAGCGGAUAACCUCUCUAUGG
RNA 2: GGGAAUGGAUCCACAUCUACGAAUUCGUACCAUAGAGAGGUUAUCCGGAGUCCGAGAUCGGAAGAGCACACGU
B13: target 1 A9G,U11A (mixed)
RNA 1: CACCCGUGCAAAAAUGCAGGGGUCUAAAACUGAGCGGAUAACCUCUCUAUGG
RNA 2: GGGAAUGGAUCCACAUCUACGAAUUCGUACCAUAGAGAGGAUGUCCGCUCACCGAGAUCGGAAGAGCACACGU
B14: target 1 A18G (mixed)
RNA 1: CACCCGUGCAAAAAUGCAGGGGUCUAAAACUGAGCGGAUAACCUCUCUAUGG
RNA 2: GGGAAUGGAUCCACAUCUACGAAUUCGUACCAUGGAGAGGUUAUCCGCUCACCGAGAUCGGAAGAGCACACGU
B15: target 1 C4A,G15U (mixed)
RNA 1: CACCCGUGCAAAAAUGCAGGGGUCUAAAACUGAGCGGAUAACCUCUCUAUGG
RNA 2: GGGAAUGGAUCCACAUCUACGAAUUCGUACCAUAGAUAGGUUAUCCGAUCACCGAGAUCGGAAGAGCACACGU
B16: target 1 insG 3' of 22,insC 3' of 17 (mixed)
RNA 1: CACCCGUGCAAAAAUGCAGGGGUCUAAAACUGAGCGGAUAACCUCUCUAUGG
RNA 2: GGGAAUGGAUCCACAUCUACGAAUUCGUACGCAUAGCAGAGGUUAUCCGCUCACCGAGAUCGGAAGAGCACACGU
B17: target 1 G15C,C22A (mixed)
RNA 1: CACCCGUGCAAAAAUGCAGGGGUCUAAAACUGAGCGGAUAACCUCUCUAUGG
RNA 2: GGGAAUGGAUCCACAUCUACGAAUUCGUAACAUAGACAGGUUAUCCGCUCACCGAGAUCGGAAGAGCACACGU
B18: target 1 A16C,G17A (mixed)
RNA 1: CACCCGUGCAAAAAUGCAGGGGUCUAAAACUGAGCGGAUAACCUCUCUAUGG
RNA 2: GGGAAUGGAUCCACAUCUACGAAUUCGUACCAUAACGAGGUUAUCCGCUCACCGAGAUCGGAAGAGCACACGU
B19: target 1 C4A,A16G (mixed)
RNA 1: CACCCGUGCAAAAAUGCAGGGGUCUAAAACUGAGCGGAUAACCUCUCUAUGG
RNA 2: GGGAAUGGAUCCACAUCUACGAAUUCGUACCAUAGGGAGGUUAUCCGAUCACCGAGAUCGGAAGAGCACACGU
B20: target 1 U3A,G17A (mixed)
RNA 1: CACCCGUGCAAAAAUGCAGGGGUCUAAAACUGAGCGGAUAACCUCUCUAUGG
RNA 2: GGGAAUGGAUCCACAUCUACGAAUUCGUACCAUAAAGAGGUUAUCCGCACACCGAGAUCGGAAGAGCACACGU
B21: target 1 U3A,A9G (mixed)
RNA 1: CACCCGUGCAAAAAUGCAGGGGUCUAAAACUGAGCGGAUAACCUCUCUAUGG
RNA 2: GGGAAUGGAUCCACAUCUACGAAUUCGUACCAUAGAGAGGUUGUCCGCACACCGAGAUCGGAAGAGCACACGU
B22: target 1 insU 3' of 17,insA 3' of 13 (mixed)
RNA 1: CACCCGUGCAAAAAUGCAGGGGUCUAAAACUGAGCGGAUAACCUCUCUAUGG
RNA 2: GGGAAUGGAUCCACAUCUACGAAUUCGUACCAUAGUAGAGAGUUAUCCGCUCACCGAGAUCGGAAGAGCACACGU
B23: target 1 U8G,U19A (mixed)
RNA 1: CACCCGUGCAAAAAUGCAGGGGUCUAAAACUGAGCGGAUAACCUCUCUAUGG
RNA 2: GGGAAUGGAUCCACAUCUACGAAUUCGUACCAAAGAGAGGUUAGCCGCUCACCGAGAUCGGAAGAGCACACGU
B24: target 1 insA 3' of 21,insA 3' of 8 (mixed)
RNA 1: CACCCGUGCAAAAAUGCAGGGGUCUAAAACUGAGCGGAUAACCUCUCUAUGG
RNA 2: GGGAAUGGAUCCACAUCUACGAAUUCGUACCAAUAGAGAGGUUAUACCGCUCACCGAGAUCGGAAGAGCACACGU
B25: target 1 insG 3' of 16,insU 3' of 7 (mixed)
RNA 1: CACCCGUGCAAAAAUGCAGGGGUCUAAAACUGAGCGGAUAACCUCUCUAUGG
RNA 2: GGGAAUGGAUCCACAUCUACGAAUUCGUACCAUAGAGGAGGUUAUCUCGCUCACCGAGAUCGGAAGAGCACACGU
B26: target 1 insC 3' of 20,insG 3' of 1 (mixed)
RNA 1: CACCCGUGCAAAAAUGCAGGGGUCUAAAACUGAGCGGAUAACCUCUCUAUGG
RNA 2: GGGAAUGGAUCCACAUCUACGAAUUCGUACCACUAGAGAGGUUAUCCGCUCAGCCGAGAUCGGAAGAGCACACGU
B27: target 1 insU 3' of 20,insG 3' of 2 (mixed)
RNA 1: CACCCGUGCAAAAAUGCAGGGGUCUAAAACUGAGCGGAUAACCUCUCUAUGG
RNA 2: GGGAAUGGAUCCACAUCUACGAAUUCGUACCAUUAGAGAGGUUAUCCGCUCGACCGAGAUCGGAAGAGCACACGU

The source of these data is article PMC10786891, “Massively parallel profiling of RNA-targeting CRISPR-Cas13d”.

For the data set, the target named is T1, EsCas13d, nuclease-dead. The data set can be described thus: crRNA (strand 1, pre-loaded); Mg2+; 40 mM Tris-HCl pH 7.5, 150 mM NaCl, 6 mM MgCl2, 1 mM DTT, 0.1% Tween-20, 0.2 mg/ml BSA; 25 C; 10 min per concentration, then washed. Particulars: tags: His6-TwinStrep-SUMO cleaved; N-terminal SNAP kept (SNAP-Surface 488); label: 3' end held by stalled T7 RNA polymerase.
With B1, the Kd (as a rule, the concentration at which binding is half-saturated) was found to be 19.9 ± 1.5 nM.
With B2 the figure was 9.8 ± 1.2 nM; with B3, 95 ± 14 nM.
Next, B4: 40.9 ± 3.4 nM.
B5 showed a Kd of 4.97 ± 0.22 nM. Compared with the last molecule, the Kd is about 8.2-fold lower.
With B6 the figure was 8.6 ± 0.9 nM; with B7, 17.2 ± 0.8 nM.
With B8 the figure was 71 ± 7 nM; with B9, 11.1 ± 1.1 nM; with B10, 60 ± 14 nM.
With B11 the figure was 17.4 ± 1.9 nM.
B12 gave a Kd of 5.46 ± 0.29 nM.
With B13 the figure was 42.7 ± 3.1 nM; with B14, 94 ± 28 nM.
Next, B15: 51 ± 19 nM; B16: roughly 70 nM.
On to B17, for which the dissociation constant Kd was found to be 63 ± 12 nM.
With B18 the figure was 52 ± 4 nM.
With B19 the figure was 17.2 ± 1.5 nM.
As to B20, the Kd is 46 ± 5 nM.
Next, B21: 7.34 ± 0.29 nM; B22: 13.1 ± 1.3 nM; B23: 61 ± 13 nM.
Next, B24: 38.9 ± 1.8 nM; B25: 22.8 ± 1.8 nM.
Next, B26: 9.3 ± 0.4 nM; B27: 11.7 ± 0.5 nM.
